# Measured values taken from patent US20170306033A1 (Amgen, published 2017).
# Changes are numbered by the printed parent chain.
# T1: human PAC1 receptor (human, UniProt P41586 21-468)
# T1 sequence: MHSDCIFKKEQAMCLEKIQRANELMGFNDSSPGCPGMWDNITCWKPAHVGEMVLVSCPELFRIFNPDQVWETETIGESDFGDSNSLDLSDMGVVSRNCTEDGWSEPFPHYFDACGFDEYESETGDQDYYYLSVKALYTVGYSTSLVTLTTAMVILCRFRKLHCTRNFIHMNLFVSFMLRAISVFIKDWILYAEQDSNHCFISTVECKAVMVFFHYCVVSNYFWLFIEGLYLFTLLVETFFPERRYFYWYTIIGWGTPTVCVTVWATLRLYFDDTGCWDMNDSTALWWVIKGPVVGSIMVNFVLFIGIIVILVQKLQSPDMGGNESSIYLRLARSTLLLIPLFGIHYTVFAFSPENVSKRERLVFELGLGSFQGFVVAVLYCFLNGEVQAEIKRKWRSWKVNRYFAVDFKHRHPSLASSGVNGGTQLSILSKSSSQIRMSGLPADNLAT
# B1: iPS:327874 (bispecific antibody, human IgG1, kappa, N297G)
# light 1: not shown
# heavy 1: not shown
# light 2: EIVLTQSPGTLSLSPGERATLSCRASQSVSSGYLTWYQQKPGQAPRLLIYGASSRATGIPDRFSGSGSGTDFTLTISRLEPEDFAVYYCQQYGNSLSRFGQGTKLEIKRTVAAPSVFIFPPSDEQLKSGTASVVCLLNNFYPREAKVQWKVDNALQSGNSQESVTEQDSKDSTYSLKSTLTLSKADYEKHKVYACEVTHQGLSSPVTKSFNRGEC
# heavy 2: not shown
# B2: iPS:326666 (bispecific antibody, human IgG2, kappa)
# light 1: not shown
# heavy 1: QVQLQESGPGLVKPSQTLSLTCTVSGGSISSGGYYWSWIRQHPGKGLEWIGYIYYSGNTYYNPSLKSRVTISGDTSKNQFSLKLRSVTAADTAVYYCTRGGAARGMDVWGQGTTVTVSSASTKGPSVFPLAPCSRSTSESTAALGCLVKDYFPEPVTVSWNSGALTSGVHTFPAVLQSSGLYSLKSVVTVPSSNFGTQTYTCNVDHKPSNTKVDKTVERKCCVECPPCPAPPVAGPSVFLFPPKPKDTLMISRTPEVTCVVVDVSHEDPEVQFNWYVDGVEVHNAKTKPREEQFNSTFRVVSVLTVVHQDWLNGKEYKCKVSNKGLPAPIEKTISKTKGQPREPQVYTLPPSREEMTKNQVSLTCLVDGFYPSDIAVEWESNGQPENNYDTTPPMLDSDGSFFLYSDLTVDKSRWQQGNVFSCSVMHEALHNHYTQKSLSLSPGK
# light 2: B1 light 2
# heavy 2: QVQLVESGGGVVQPGRSLRLSCAASGFTFSSYGMHWVRQAPGKGLEWVAVIWYDGSNKYYADSVKGRFIISRDKSKNTLYLQMNSLRAEDTAVYYCARAGGIAAAGLYYYYGMDVWGQGTTVTVSSASTKGPSVFPLAPCSRSTSESTAALGCLVKDYFPEPVTVSWNSGALTSGVHTFPAVLQSSGLYSLESVVTVPSSNFGTQTYTCNVDHKPSNTKVDKTVERKCCVECPPCPAPPVAGPSVFLFPPKPKDTLMISRTPEVTCVVVDVSHEDPEVQFNWYVDGVEVHNAKTKPREEQFNSTFRVVSVLTVVHQDWLNGKEYKCKVSNKGLPAPIEKTISKTKGQPREPQVYTLPPSRKKMTKNQVSLTCLVKGFYPSDIAVEWESNGQPENNYKTTPPMLKSDGSFFLYSKLTVDKSRWQQGNVFSCSVMHEALHNHYTQKSLSLSPGK
# B3: iPS:327880 (bispecific antibody, human IgG1, kappa, lambda, N297G)
# light 1: not shown
# heavy 1: not shown
# light 2: QSVLTQPPSVSAAPGQKVTISCSGSSSNIGNNYVSWYQQLPGTAPKLLIYDNNKRPSGIPDRFSGSKSGTSTTLGITGLQTGDEADYYCGTWDSRLSAVVFGKGTKLTVLGQPKANPTVTLFPPSSEELQANKATLVCLISDFYPGAVTVAWKADGSPVKAGVETTKPSKQSNNKYAAKSYLSLTPEQWKSHRSYSCQVTHEGSTVEKTVAPTECS
# heavy 2: QVQLVESGGGVVQPGRSLRLSCAASGFTFSSFGMHWVRQAPGKELEWVAVISFDGSIKYSVDSVKGRFTISRDNSKNTLFLQMNSLRAEDTAVYYCARDRLNYYESSGYYHYKYYGMAVWGQGTTVTVSSASTKGPSVFPLAPSSKSTSGGTAALGCLVKDYFPEPVTVSWNSGALTSGVHTFPAVLQSSGLYSLESVVTVPSSSLGTQTYICNVNHKPSNTKVDKKVEPKSCDKTHTCPPCPAPELLGGPSVFLFPPKPKDTLMISRTPEVTCVVVDVSHEDPEVKFNWYVDGVEVHNAKTKPCEEQYGSTYRCVSVLTVLHQDWLNGKEYKCKVSNKALPAPIEKTISKAKGQPREPQVYTLPPSRKEMTKNQVSLTCLVKGFYPSDIAVEWESNGQPENNYKTTPPVLKSDGSFFLYSKLTVDKSRWQQGNVFSCSVMHEALHNHYTQKSLSLSPGK
# B4: iPS:327893 (bispecific antibody, human IgG1, kappa, lambda, N297G)
# light 1: DIQMTQSPSSLSASVGDRITITCRASQSISRYLNWYQQKPGKAPKLLIYAASSLQSGIPSRFSGSGSGTDFTLTINSLQPEDFATYFCQQSYSPPFTFGQGTKVDIKRTVAAPSVFIFPPSDEQLKSGTASVVCLLNNFYPREAKVQWKVDNALQSGNSQESVTEQDSKDSTYSLESTLTLSKADYEKHKVYACEVTHQGLSSPVTKSFNRGEC
# heavy 1: not shown
# light 2: B3 light 2 with T72A, K103G
# heavy 2: B3 heavy 2 with E44G
# B5: iPS:327883 (bispecific antibody, human IgG1, kappa, lambda, N297G)
# light 1: B4 light 1
# heavy 1: not shown
# light 2: B3 light 2 with T72A, K103G
# heavy 2: B3 heavy 2 with E44G, E105D
# B6: iPS:327886 (bispecific antibody, human IgG1, kappa, lambda, N297G)
# light 1: B4 light 1
# heavy 1: not shown
# light 2: B3 light 2 with T72A, K103G
# heavy 2: B3 heavy 2 with E44G, E105D, E370K
# B7: iPS:327891 (bispecific antibody, human IgG1, kappa, lambda, N297G)
# light 1: B4 light 1
# heavy 1: not shown
# light 2: B3 light 2 with T72A, G75A, K103G
# heavy 2: B3 heavy 2 with E44G, E105D, E370K
# B8: iPS:327887 (bispecific antibody, human IgG1, kappa, lambda, N297G)
# light 1: not shown
# heavy 1: not shown
# light 2: B3 light 2 with T72A, K103G
# heavy 2: B3 heavy 2 with E44G, E105D, E370K
# B9: iPS:327892 (bispecific antibody, human IgG1, kappa, lambda, N297G)
# light 1: not shown
# heavy 1: not shown
# light 2: B3 light 2 with T72A, G75A, K103G
# heavy 2: B3 heavy 2 with E44G, E105D, E370K
# B10: iPS:327882 (bispecific antibody, human IgG1, kappa, lambda, N297G)
# light 1: not shown
# heavy 1: not shown
# light 2: B3 light 2 with K103G
# heavy 2: B3 heavy 2 with E44G, E370K
# B11: iPS:327884 (bispecific antibody, human IgG1, kappa, lambda, N297G)
# light 1: not shown
# heavy 1: not shown
# light 2: B3 light 2 with T72A, K103G
# heavy 2: B3 heavy 2 with E44G, E105D
# B12: iPS:327895 (bispecific antibody, human IgG1, kappa, lambda, N297G)
# light 1: not shown
# heavy 1: not shown
# light 2: B3 light 2 with T72A
# heavy 2: B3 heavy 2
# B13: iPS:327885 (bispecific antibody, human IgG1, kappa, lambda, N297G)
# light 1: not shown
# heavy 1: not shown
# light 2: B3 light 2 with T72A
# heavy 2: B3 heavy 2 with E105D
# B14: iPS:327881 (bispecific antibody, human IgG1, kappa, lambda, N297G)
# light 1: B4 light 1
# heavy 1: not shown
# light 2: B3 light 2 with K103G
# heavy 2: B3 heavy 2 with E44G, E370K
# B15: iPS:327896 (bispecific antibody, human IgG1, kappa, lambda, N297G)
# light 1: B4 light 1
# heavy 1: not shown
# light 2: B3 light 2 with T72A, K103G
# heavy 2: B3 heavy 2 with E44G, E370K
# B16: iPS:327894 (bispecific antibody, human IgG1, kappa, lambda, N297G)
# light 1: not shown
# heavy 1: not shown
# light 2: B3 light 2 with T72A, K103G
# heavy 2: B3 heavy 2 with E44G
# Experiments:
# [1] = biological target: human CGRP receptor (human, UniProt Q16602 23-461; O60894 27-148); assay: cell-based or functional assay
# [2] = biological target: T1, human PAC1 receptor; assay: cell-based or functional assay
# Chain of human CGRP receptor (Q16602 23-461 limits assumed, chain 1 of 2): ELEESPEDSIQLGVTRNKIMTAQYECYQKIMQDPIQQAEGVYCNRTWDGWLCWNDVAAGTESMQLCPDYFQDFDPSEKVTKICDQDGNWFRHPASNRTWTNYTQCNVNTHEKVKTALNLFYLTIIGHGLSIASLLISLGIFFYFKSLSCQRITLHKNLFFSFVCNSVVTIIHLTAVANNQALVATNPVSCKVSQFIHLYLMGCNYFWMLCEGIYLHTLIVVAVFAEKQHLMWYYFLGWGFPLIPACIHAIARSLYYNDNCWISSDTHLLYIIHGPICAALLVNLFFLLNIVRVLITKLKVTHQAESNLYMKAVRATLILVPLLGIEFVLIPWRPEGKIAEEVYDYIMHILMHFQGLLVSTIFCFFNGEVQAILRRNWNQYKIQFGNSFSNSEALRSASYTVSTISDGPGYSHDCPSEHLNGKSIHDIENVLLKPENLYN
# Chain of human CGRP receptor (O60894 27-148 limits assumed, chain 2 of 2): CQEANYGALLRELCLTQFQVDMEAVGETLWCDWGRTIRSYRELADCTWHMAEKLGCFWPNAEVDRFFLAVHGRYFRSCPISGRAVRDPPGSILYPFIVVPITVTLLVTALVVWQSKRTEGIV
Binder,% inhibition of human CGRPR [1],% inhibition of human PAC1 [2]
B1,95%,5%
B2,74%,15%
B3,87%,15%
B4,74%,56%
B5,77%,27%
B6,72%,65%
B7,80%,78%
B8,87%,35%
B9,88%,33%
B10,83%,13%
B11,78%,8%
B12,80%,15%
B13,73%,7%
B14,76%,16%
B15,87%,28%
B16,80%,12%
